{"source": "patent US20230212268A1", "about": "(UNM RAINFOREST INNOVATIONS, published 2023)", "binders": {"B1": {"name": "EbovGPscFv4-2 (scFv)", "scFv": "MAWSHPQFEKTGSGGAELVKSGASVKLSCTASGFNIKDDYMHWVKQRPEQGLEWIGWIDPENGDTEYASKFQGKATITADTSSNTAYLQLSSLTSEDTAVYYCTTYYYGSAWFAYWGQGTLVTVSAGGGGSGGGGSGGGGSGGGGSASLSVSVGETVTITCRASGNIHNYLAWYQQKQGKSPQLLVYNAKTLADGVPSRFSGSGSGTQYSLKINNLQPEDFGSYYCQHFWSTPYTFGGGTKLEIKRADAAPTVSIFPPSSEQLTSGGASVVCFLNNFTHCQELQQDECS"}}, "key": {"[1]": {"target": "recombinant BDBV glycoprotein (BDBV (Bundibugyo ebolavirus))", "assay": "ELISA dose-response fit, reference scFv22-1"}, "[2]": {"target": "T1, recombinant TAFV glycoprotein (TAFV (Tai Forest virus), UniProt Q66810 33-650)", "T1 sequence": "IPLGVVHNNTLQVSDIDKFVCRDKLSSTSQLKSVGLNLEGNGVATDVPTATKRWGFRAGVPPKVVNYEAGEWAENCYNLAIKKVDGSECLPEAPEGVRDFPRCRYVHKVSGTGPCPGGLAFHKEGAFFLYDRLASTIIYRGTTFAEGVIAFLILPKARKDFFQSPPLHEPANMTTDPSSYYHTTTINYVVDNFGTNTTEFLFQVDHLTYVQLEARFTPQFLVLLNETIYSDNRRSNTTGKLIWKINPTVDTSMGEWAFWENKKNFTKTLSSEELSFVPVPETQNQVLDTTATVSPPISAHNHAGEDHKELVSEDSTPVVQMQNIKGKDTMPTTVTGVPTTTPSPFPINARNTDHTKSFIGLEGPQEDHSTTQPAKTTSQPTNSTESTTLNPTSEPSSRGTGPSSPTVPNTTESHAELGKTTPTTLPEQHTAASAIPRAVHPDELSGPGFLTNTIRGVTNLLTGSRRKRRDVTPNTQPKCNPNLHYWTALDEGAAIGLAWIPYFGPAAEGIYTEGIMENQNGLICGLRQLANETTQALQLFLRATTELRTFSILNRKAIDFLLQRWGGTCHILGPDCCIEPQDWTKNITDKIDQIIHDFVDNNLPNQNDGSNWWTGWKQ", "assay": "maximal binding from ELISA dose-response fit"}, "[3]": {"target": "T2, recombinant SUDV glycoprotein (SUDV (Sudan ebolavirus), UniProt Q7T9D9 33-650)", "T2 sequence": "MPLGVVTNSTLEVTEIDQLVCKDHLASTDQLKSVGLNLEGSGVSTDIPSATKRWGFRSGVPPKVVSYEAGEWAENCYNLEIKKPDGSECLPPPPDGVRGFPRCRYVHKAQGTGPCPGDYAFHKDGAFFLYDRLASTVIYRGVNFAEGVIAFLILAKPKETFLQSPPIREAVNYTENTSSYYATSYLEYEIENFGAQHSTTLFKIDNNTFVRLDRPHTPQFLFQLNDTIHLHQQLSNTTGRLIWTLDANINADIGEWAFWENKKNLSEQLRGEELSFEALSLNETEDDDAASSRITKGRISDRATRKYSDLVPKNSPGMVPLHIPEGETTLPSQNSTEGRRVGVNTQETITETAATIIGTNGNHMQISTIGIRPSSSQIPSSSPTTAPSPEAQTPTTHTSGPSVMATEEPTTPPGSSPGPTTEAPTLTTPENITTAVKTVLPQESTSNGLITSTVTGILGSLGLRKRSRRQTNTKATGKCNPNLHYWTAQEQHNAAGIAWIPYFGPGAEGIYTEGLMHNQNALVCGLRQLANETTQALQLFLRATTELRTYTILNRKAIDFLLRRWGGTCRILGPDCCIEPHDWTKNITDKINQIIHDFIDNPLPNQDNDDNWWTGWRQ", "assay": "maximal binding from ELISA dose-response fit"}, "[4]": {"target": "T3, recombinant RESTV glycoprotein (RESTV (Reston ebolavirus), UniProt Q66799 34-651)", "T3 sequence": "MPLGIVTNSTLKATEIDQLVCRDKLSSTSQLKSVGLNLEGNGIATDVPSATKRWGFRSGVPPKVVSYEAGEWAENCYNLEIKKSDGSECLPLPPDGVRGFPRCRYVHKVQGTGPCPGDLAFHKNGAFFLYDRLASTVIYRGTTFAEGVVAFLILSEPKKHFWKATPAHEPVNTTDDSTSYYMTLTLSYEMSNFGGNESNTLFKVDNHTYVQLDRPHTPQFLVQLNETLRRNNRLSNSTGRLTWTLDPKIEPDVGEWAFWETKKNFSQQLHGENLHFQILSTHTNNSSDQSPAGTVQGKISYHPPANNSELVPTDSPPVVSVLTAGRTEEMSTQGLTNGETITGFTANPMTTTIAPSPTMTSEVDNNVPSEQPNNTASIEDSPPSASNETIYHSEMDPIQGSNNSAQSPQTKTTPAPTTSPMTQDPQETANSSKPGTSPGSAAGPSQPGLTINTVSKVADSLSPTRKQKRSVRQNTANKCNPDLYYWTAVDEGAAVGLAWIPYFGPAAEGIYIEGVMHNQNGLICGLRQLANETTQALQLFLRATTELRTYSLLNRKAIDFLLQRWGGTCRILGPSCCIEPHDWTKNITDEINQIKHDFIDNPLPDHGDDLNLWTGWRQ", "assay": "maximal binding from ELISA dose-response fit"}, "[5]": {"target": "T4, recombinant EBOV glycoprotein (EBOV (Zaire ebolavirus), UniProt Q05320 33-650)", "T4 sequence": "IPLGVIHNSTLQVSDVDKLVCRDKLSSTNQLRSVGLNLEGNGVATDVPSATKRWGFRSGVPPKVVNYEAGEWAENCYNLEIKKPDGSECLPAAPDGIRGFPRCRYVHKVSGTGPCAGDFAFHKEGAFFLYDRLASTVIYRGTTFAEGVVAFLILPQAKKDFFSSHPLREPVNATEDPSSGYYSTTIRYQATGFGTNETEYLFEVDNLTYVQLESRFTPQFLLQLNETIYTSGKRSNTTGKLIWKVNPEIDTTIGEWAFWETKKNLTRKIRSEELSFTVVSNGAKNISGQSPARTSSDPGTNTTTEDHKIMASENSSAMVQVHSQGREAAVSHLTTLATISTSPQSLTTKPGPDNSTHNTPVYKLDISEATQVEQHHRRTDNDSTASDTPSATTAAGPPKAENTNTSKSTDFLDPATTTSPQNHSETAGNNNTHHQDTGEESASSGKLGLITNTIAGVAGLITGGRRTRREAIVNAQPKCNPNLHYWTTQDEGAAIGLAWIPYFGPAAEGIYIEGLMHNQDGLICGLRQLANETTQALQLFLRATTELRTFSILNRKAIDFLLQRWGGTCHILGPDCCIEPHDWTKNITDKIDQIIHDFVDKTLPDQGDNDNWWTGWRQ", "assay": "maximal binding from ELISA dose-response fit"}, "[6]": {"target": "T3, recombinant RESTV glycoprotein", "assay": "ELISA dose-response fit, reference scFv22-1"}, "[7]": {"target": "T4, recombinant EBOV glycoprotein", "assay": "ELISA dose-response fit, reference scFv22-1"}, "[8]": {"target": "recombinant BDBV glycoprotein (BDBV (Bundibugyo ebolavirus))", "assay": "maximal binding from ELISA dose-response fit"}}, "data": [{"binder": "B1", "values": [{"measurement": "fold affinity against scFv22-1", "setting": "[1]", "result": 2, "unit": "fold"}, {"measurement": "Bmax signal", "setting": "[2]", "result": 280000, "unit": "relative absorbance units"}, {"measurement": "Bmax signal", "setting": "[3]", "result": 280000, "unit": "relative absorbance units"}, {"measurement": "Bmax signal", "setting": "[4]", "result": 210000, "unit": "relative absorbance units"}, {"measurement": "Bmax signal", "setting": "[5]", "result": 350000, "unit": "relative absorbance units"}, {"measurement": "fold affinity against scFv22-1", "setting": "[6]", "result": "~2", "unit": "fold"}, {"measurement": "fold affinity against scFv22-1", "setting": "[7]", "result": "~2", "unit": "fold"}, {"measurement": "Bmax signal (relative absorbance units)", "setting": "[8]", "result": 220000}]}]}
